From paper PMC3658134
[ ]: non-standard residue; d: D form. Sec = N[C@@H](C[SeH])C(=O)O

Substrate: O=C1NC(=O)C(=O)C(=O)N1
Assay: Substrate specificity, NADPH consumption, wild-type TGR
Type: biochemical, Schistosoma mansoni
Conditions: pH 7.4; 25.0 °C

B1: wild-type TGR (SmTGR) (Schistosoma mansoni) (protein)
chain: MPPADGTSQWLRKTVDSAAVILFSKTTCPYCKKVKDVLAEAKIKHATIELDQLSNGSAIQKCLASFSKIETVPQMFVRGKFIGDSQTVLKYYSNDELAGIVNESKYDYDLIVIGGGSGGLAAGKEAAKYGAKTAVLDYVEPTPIGTTWGLGGTCVNVGCIPKKLMHQAGLLSHALEDAEHFGWSLDRSKISHNWSTMVEGVQSHIGSLNWGYKVALRDNQVTYLNAKGRLISPHEVQITDKNQKVSTITGNKIILATGERPKYPEIPGAVEYGITSDDLFSLPYFPGKTLVIGASYVALECAGFLASLGGDVTVMVRSILLRGFDQQMAEKVGDYMENHGVKFAKLCVPDEIKQLKVVDTENNKPGLLLVKGHYTDGKKFEEEFETVIFAVGREPQLSKVLCETVGVKLDKNGRVVCTDDEQTTVSNVYAIGDINAGKPQLTPVAIQAGRYLARRLFAGATELTDYSNVATTVFTPLEYGACGLSEEDAIEKYGDKDIEVYHSNFKPLEWTVAHREDNVCYMKLVCRKSDNMRVLGLHVLGPNAGEITQGYAVAIKMGATKADFDRTIGIHPTCSETFTTLHVTKKSGVSPIVSGC[Sec]G
modifications: not fully specified
Km: 0.94 ± 0.09 mM | kcat: 27.7 ± 0.8 s⁻¹
